Target: T1, human FXR^aa187–472 fused to GST (human, UniProt Q96RI1-2 187-472)
T1 construct: Detected in the TR-FRET assay by europium-labelled anti-GST; also called human FXR-LBD; hFXR; source: purified
T1 sequence (looked up): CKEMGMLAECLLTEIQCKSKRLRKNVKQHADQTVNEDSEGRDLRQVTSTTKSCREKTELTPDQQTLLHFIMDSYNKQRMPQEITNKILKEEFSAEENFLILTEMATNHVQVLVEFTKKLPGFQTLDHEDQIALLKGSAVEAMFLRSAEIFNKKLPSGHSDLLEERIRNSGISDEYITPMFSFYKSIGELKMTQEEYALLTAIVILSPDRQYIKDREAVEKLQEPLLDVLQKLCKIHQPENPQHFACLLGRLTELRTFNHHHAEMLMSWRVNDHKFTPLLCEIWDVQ
Experiment: FRET or BRET; homogeneous TR-FRET: biotinylated SRC-1 peptide (0.4 µM), 200 ng streptavidin-allophycocyanin, 6 ng europium-labelled anti-GST and 2.5 ng GST-FXR-LBD in 25 µL of 20 mM Tris/HCl pH 7.5, 5 mM MgCl2, 60 mM KCl, 1 mM DTT, 0.9 g/L BSA; 60 min incubation; FXR agonist (GW4064, PX20606 or PX20350) titrated; duplicates
Details: both partners purified

- binding result: binds
B1: biotinylated SRC-1 peptide b-[residues removed]-COOH (peptide)
peptide: CPSSHSSLTERHKILHRLLQEGSPS
HELM: PEPTIDE1{[O=C1N[C@H]2[C@H](CS[C@H]2CCCCC(=O)[*:2])N1].C.P.S.S.H.S.S.L.T.E.R.H.K.I.L.H.R.L.L.Q.E.G.S.P.S}$$$$V2.0
SMILES: CC[C@H](C)[C@H](NC(=O)[C@H](CCCCN)NC(=O)[C@H](Cc1c[nH]cn1)NC(=O)[C@H](CCCNC(=N)N)NC(=O)[C@H](CCC(=O)O)NC(=O)[C@@H](NC(=O)[C@H](CC(C)C)NC(=O)[C@H](CO)NC(=O)[C@H](CO)NC(=O)[C@H](Cc1c[nH]cn1)NC(=O)[C@H](CO)NC(=O)[C@H](CO)NC(=O)[C@@H]1CCCN1C(=O)[C@H](CS)NC(=O)CCCC[C@@H]1SC[C@@H]2NC(=O)N[C@@H]21)[C@@H](C)O)C(=O)N[C@@H](CC(C)C)C(=O)N[C@@H](Cc1c[nH]cn1)C(=O)N[C@@H](CCCNC(=N)N)C(=O)N[C@@H](CC(C)C)C(=O)N[C@@H](CC(C)C)C(=O)N[C@@H](CCC(N)=O)C(=O)N[C@@H](CCC(=O)O)C(=O)NCC(=O)N[C@@H](CO)C(=O)N1CCC[C@H]1C(=O)N[C@@H](CO)C(=O)O
notes: Coupled to streptavidin-allophycocyanin through its biotin in the assay

Reference: PMC3467263, “FXR Controls the Tumor Suppressor NDRG2 and FXR Agonists Reduce Liver Tumor Growth and Metastasis in an Orthotopic Mouse Xenograft Model” (PLoS ONE, 2012)
